From patent CN113683697A (SHANGHAI XIANGYAO BIOTECHNOLOGY CO LTD, dated 2021) come the findings set out here.

Sequences and labels used below:
B1: scFv-27B4-H1-L3 (scFv)
scFv: QVQLVQSGAEVKKPGASVKVSCKASGYTFTTYWMHWVRQAPGQGLEWMGIIYPGDGGSSYAQKFQGRVTMTRDTSTSTVYMELSSLRSEDTAVYYCARGGNYISFPMYYWGQGTLVTVSSGGGGSGGGGSGGGGSGGGGASEIVMTQSPATLSVSPGERATLSCKASRGVSTALAWYQQKPGQAPRLLIYWASTRATGIPARFSGSGSGTEFTLTISSLQSEDFAVYYCQQHYDTPYTFGQGTKLEIK
notes: VH-linker-VL in phage display vector pXY, expressed in TG1, purified on a nickel column
B2: scFv-27B4-H2-L3 (scFv)
scFv: B1 scFv with A16S, M34I, H35S, I50G, S59N, M70I, R72A, T74E, V79A
notes: Expressed from phage display vector pXY in TG1, purified on a nickel column
B3: scFv-27B4-H3-L5 (scFv)
scFv: QVQLVQSGSELKKPGASVKVSCKASGYTFTTYWMNWVRQAPGQGLEWMGWIYPGDGGSTYAQGFTGRFVFSLDTSVSTAYLQICSLKAEDTAVYYCARGGNYISFPMYYWGQGTLVTVSSGGGGSGGGGSGGGGSGGGGASDIVMTQTPLSLSVTPGQPASISCKASRGVSTALYWYLQKPGQPPQLLIYWASNRFSGVPDRFSGSGSGTDFTLKISRVEAEDVGVYYCQQHYDTPYTFGQGTKLEIK
notes: as for B1
B4: scFv-27B4-H3-L3 (scFv)
scFv: QVQLVQSGSELKKPGASVKVSCKASGYTFTTYWMNWVRQAPGQGLEWMGWIYPGDGGSTYAQGFTGRFVFSLDTSVSTAYLQICSLKAEDTAVYYCARGGNYISFPMYYWGQGTLVTVSSGGGGSGGGGSGGGGSGGGGASEIVMTQSPATLSVSPGERATLSCKASRGVSTALAWYQQKPGQAPRLLIYWASTRATGIPARFSGSGSGTEFTLTISSLQSEDFAVYYCQQHYDTPYTFGQGTKLEIK
notes: as for B1
B5: scFv-27B4-H4-L1 (scFv)
scFv: EVQLVQSGAEVKKPGESLKISCKASGYTFTTYWIGWVRQMPGKGLEWMGIIYPGDGGSRYSPSFQGQVTISADKSISTAYLQWSSLKASDTAMYYCARGGNYISFPMYYWGQGTLVTVSSGGGGSGGGGSGGGGSGGGGASDIQMTQSPSSLSASMGDRVTITCKASRGVSTALNWYQQKPGKAPKLLIYWASSLQSGVPSRFSGSGSGTDFTLTISSLQPEDFATYYCQQHYDTPYTFGQGTKLEIK
notes: as for B1
B6: scFv-27B4-H4-L2 (scFv)
scFv: B5 scFv with D142V, Q144W, S151L, M156T, T163S, N175A, K186E, S194T, S218C, P221S
notes: as for B2
B7: scFv-27B4-H3-L1 (scFv)
scFv: QVQLVQSGSELKKPGASVKVSCKASGYTFTTYWMNWVRQAPGQGLEWMGWIYPGDGGSTYAQGFTGRFVFSLDTSVSTAYLQICSLKAEDTAVYYCARGGNYISFPMYYWGQGTLVTVSSGGGGSGGGGSGGGGSGGGGASDIQMTQSPSSLSASMGDRVTITCKASRGVSTALNWYQQKPGKAPKLLIYWASSLQSGVPSRFSGSGSGTDFTLTISSLQPEDFATYYCQQHYDTPYTFGQGTKLEIK
notes: as for B1
B8: scFv-27B4-H3-L2 (scFv)
scFv: B7 scFv with D142V, Q144W, S151L, M156T, T163S, N175A, K186E, S194T, S218C, P221S
notes: as for B1
B9: scFv-27B4-H3-L4 (scFv)
scFv: QVQLVQSGSELKKPGASVKVSCKASGYTFTTYWMNWVRQAPGQGLEWMGWIYPGDGGSTYAQGFTGRFVFSLDTSVSTAYLQICSLKAEDTAVYYCARGGNYISFPMYYWGQGTLVTVSSGGGGSGGGGSGGGGSGGGGASEIVLTQSPDFQSVTPKEKVTITCKASRGVSTALHWYQQKPDQSPKLLIKWASQSFSGVPSRFSGSGSGTDFTLTINSLEAEDAATYYCQQHYDTPYTFGQGTKLEIK
notes: as for B1
B10: scFv-27B4-H4-L4 (scFv)
scFv: EVQLVQSGAEVKKPGESLKISCKASGYTFTTYWIGWVRQMPGKGLEWMGIIYPGDGGSRYSPSFQGQVTISADKSISTAYLQWSSLKASDTAMYYCARGGNYISFPMYYWGQGTLVTVSSGGGGSGGGGSGGGGSGGGGASEIVLTQSPDFQSVTPKEKVTITCKASRGVSTALHWYQQKPDQSPKLLIKWASQSFSGVPSRFSGSGSGTDFTLTINSLEAEDAATYYCQQHYDTPYTFGQGTKLEIK
notes: as for B1
B11: scFv-27B4-H1-L5 (scFv)
scFv: QVQLVQSGAEVKKPGASVKVSCKASGYTFTTYWMHWVRQAPGQGLEWMGIIYPGDGGSSYAQKFQGRVTMTRDTSTSTVYMELSSLRSEDTAVYYCARGGNYISFPMYYWGQGTLVTVSSGGGGSGGGGSGGGGSGGGGASDIVMTQTPLSLSVTPGQPASISCKASRGVSTALYWYLQKPGQPPQLLIYWASNRFSGVPDRFSGSGSGTDFTLKISRVEAEDVGVYYCQQHYDTPYTFGQGTKLEIK
notes: as for B1
B12: scFv-27B4-H2-L5 (scFv)
scFv: B11 scFv with A16S, M34I, H35S, I50G, S59N, M70I, R72A, T74E, V79A
notes: as for B1
B13: scFv-27B4-H4-L3 (scFv)
scFv: EVQLVQSGAEVKKPGESLKISCKASGYTFTTYWIGWVRQMPGKGLEWMGIIYPGDGGSRYSPSFQGQVTISADKSISTAYLQWSSLKASDTAMYYCARGGNYISFPMYYWGQGTLVTVSSGGGGSGGGGSGGGGSGGGGASEIVMTQSPATLSVSPGERATLSCKASRGVSTALAWYQQKPGQAPRLLIYWASTRATGIPARFSGSGSGTEFTLTISSLQSEDFAVYYCQQHYDTPYTFGQGTKLEIK
notes: as for B2
B14: scFv-27B4-H1-L1 (scFv)
scFv: QVQLVQSGAEVKKPGASVKVSCKASGYTFTTYWMHWVRQAPGQGLEWMGIIYPGDGGSSYAQKFQGRVTMTRDTSTSTVYMELSSLRSEDTAVYYCARGGNYISFPMYYWGQGTLVTVSSGGGGSGGGGSGGGGSGGGGASDIQMTQSPSSLSASMGDRVTITCKASRGVSTALNWYQQKPGKAPKLLIYWASSLQSGVPSRFSGSGSGTDFTLTISSLQPEDFATYYCQQHYDTPYTFGQGTKLEIK
notes: as for B1
B15: scFv-27B4-H2-L1 (scFv)
scFv: B14 scFv with A16S, M34I, H35S, I50G, S59N, M70I, R72A, T74E, V79A
notes: as for B1
B16: scFv-27B4-H1-L2 (scFv)
scFv: B14 scFv with D142V, Q144W, S151L, M156T, T163S, N175A, K186E, S194T, S218C, P221S
notes: as for B1
B17: scFv-27B4-H2-L2 (scFv)
scFv: QVQLVQSGAEVKKPGSSVKVSCKASGYTFTTYWISWVRQAPGQGLEWMGGIYPGDGGSNYAQKFQGRVTITADESTSTAYMELSSLRSEDTAVYYCARGGNYISFPMYYWGQGTLVTVSSGGGGSGGGGSGGGGSGGGGASVIWMTQSPSLLSASTGDRVTISCKASRGVSTALAWYQQKPGKAPELLIYWASTLQSGVPSRFSGSGSGTDFTLTISCLQSEDFATYYCQQHYDTPYTFGQGTKLEIK
notes: as for B2
B18: scFv-27B4-H1-L4 (scFv)
scFv: QVQLVQSGAEVKKPGASVKVSCKASGYTFTTYWMHWVRQAPGQGLEWMGIIYPGDGGSSYAQKFQGRVTMTRDTSTSTVYMELSSLRSEDTAVYYCARGGNYISFPMYYWGQGTLVTVSSGGGGSGGGGSGGGGSGGGGASEIVLTQSPDFQSVTPKEKVTITCKASRGVSTALHWYQQKPDQSPKLLIKWASQSFSGVPSRFSGSGSGTDFTLTINSLEAEDAATYYCQQHYDTPYTFGQGTKLEIK
notes: as for B1
B19: scFv-27B4-H2-L4 (scFv)
scFv: B18 scFv with A16S, M34I, H35S, I50G, S59N, M70I, R72A, T74E, V79A
notes: as for B1
B20: scFv-27B4-H4-L5 (scFv)
scFv: EVQLVQSGAEVKKPGESLKISCKASGYTFTTYWIGWVRQMPGKGLEWMGIIYPGDGGSRYSPSFQGQVTISADKSISTAYLQWSSLKASDTAMYYCARGGNYISFPMYYWGQGTLVTVSSGGGGSGGGGSGGGGSGGGGASDIVMTQTPLSLSVTPGQPASISCKASRGVSTALYWYLQKPGQPPQLLIYWASNRFSGVPDRFSGSGSGTDFTLKISRVEAEDVGVYYCQQHYDTPYTFGQGTKLEIK
notes: as for B1

Positions count from the first letter of the chain named.

In the first assay the target is T1, B7-H3 (4Ig-B7-H3) endogenously expressed on MDA-MB-231 cells (UniProt Q5ZPR3 29-534, limits assumed).
T1 construct: whole, on cells; also called 细胞表面的B7-H3抗原
T1 sequence (looked up): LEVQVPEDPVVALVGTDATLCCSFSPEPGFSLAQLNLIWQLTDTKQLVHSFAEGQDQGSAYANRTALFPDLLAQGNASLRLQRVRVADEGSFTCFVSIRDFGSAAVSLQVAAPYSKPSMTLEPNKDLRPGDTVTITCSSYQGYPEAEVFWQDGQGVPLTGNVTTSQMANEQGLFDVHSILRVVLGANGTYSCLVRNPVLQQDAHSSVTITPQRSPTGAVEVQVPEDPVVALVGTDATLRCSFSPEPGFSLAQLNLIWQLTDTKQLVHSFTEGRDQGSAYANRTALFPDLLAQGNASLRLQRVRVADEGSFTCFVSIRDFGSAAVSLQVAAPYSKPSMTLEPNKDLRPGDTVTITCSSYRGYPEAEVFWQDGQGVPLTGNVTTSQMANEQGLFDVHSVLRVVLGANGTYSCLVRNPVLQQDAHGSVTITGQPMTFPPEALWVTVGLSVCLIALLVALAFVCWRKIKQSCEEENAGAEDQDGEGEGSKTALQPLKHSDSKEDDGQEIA
Briefly: FACS, MDA-MB-231 cells.
As for B1, the binding result is on record as “binds”.
Same read-out and setting: as for B2, the entry is “binds”; as for B3, “binds”; as for B4, “binds”.
Same read-out and setting: as for B5, the entry is “binds”.
On the same count and under the same terms, as for B6, the entry is “binds”.
In the case of B7, the binding result was “binds”.
For the molecule B8, the binding result is on record as “binds”.
Still for that read-out and setting: as for B9, the entry is “binds”; as for B10, “binds”; as for B11, “binds”.
Same read-out and setting: next, B12: “binds”.
On the same count and under the same terms, as for B13, the entry is “binds”.
As for B14, the binding result is “binds”.
Still for that read-out and setting: next, B15: “binds”.
Same read-out and setting: as for B16, the entry is “binds”; as for B17, “binds”; as for B18, “binds”.
On the same count and under the same terms, as for B19, the entry is “binds”; as for B20, “binds”.

Another assay addresses T2, 人B7-H3变体1(4Ig-B7-H3) on stable cells 293-h4Ig-B7-H3-copGFP (human, UniProt Q5ZPR3 29-534).
T2 construct: Full-length CDS cloned in pCDH-EF1-T2A-copGFP and expressed on stably transduced cells; residues left by T2A cleavage not described
T2 sequence: T1 sequence (looked up)
Briefly: FACS, 293-h4Ig-B7-H3-copGFP stable cells.
In the case of B1, the binding result is recorded as “binds”.
In the case of B2, the binding result is reported as “binds”.
With B3, the binding result is “binds”.
The same measure, in the same setting: as for B4, the entry is “binds”.
Same read-out and setting: as for B5, the entry is “binds”.
As for B6, the binding result is reported as “binds”.
The same measure, in the same setting: next, B7: “binds”.
Same read-out and setting: as for B8, the entry is “binds”; as for B9, “binds”; as for B10, “binds”.
B11: the binding result is “binds”.
For B12, the binding result is listed as “binds”.
Still for that read-out and setting: as for B13, the entry is “binds”.
The same measure, in the same setting: next, B14: “binds”.
As for B15, the binding result is given as “binds”.
Same read-out and setting: next, B16: “binds”; B17: “binds”; B18: “binds”.
In the case of B19, the binding result is recorded as “binds”.
Same read-out and setting: next, B20: “binds”.
